Patent US20250215109A1

Target: HER2 on human tumor cells (human) (UniProt P04626)
Experiment: Her2 receptor occupancy on SK-BR-3 cells, FACS, competitor biotin-labeled parental anti-HER2 antibody

- Max RO %: 0%
Substance: Magrolimab (antibody)
